{"source": "patent US20200392251A1", "key": {"[1]": {"molecular_target": "catalytic domain of MMP-9 (cdMMP-9) (UniProt P14780)", "test": "bio-layer interferometry"}, "[2]": {"molecular_target": "catalytic domain of MMP-9 (cdMMP-9) (UniProt P14780)", "test": "bio-layer interferometry; reference cdMMP-12 wt"}, "[3]": {"molecular_target": "human β-secretase 1 (BACE1), extracellular/catalytic domain (human) (UniProt P56817)", "sequence (P56817 46-457 limits assumed, form in doubt)": "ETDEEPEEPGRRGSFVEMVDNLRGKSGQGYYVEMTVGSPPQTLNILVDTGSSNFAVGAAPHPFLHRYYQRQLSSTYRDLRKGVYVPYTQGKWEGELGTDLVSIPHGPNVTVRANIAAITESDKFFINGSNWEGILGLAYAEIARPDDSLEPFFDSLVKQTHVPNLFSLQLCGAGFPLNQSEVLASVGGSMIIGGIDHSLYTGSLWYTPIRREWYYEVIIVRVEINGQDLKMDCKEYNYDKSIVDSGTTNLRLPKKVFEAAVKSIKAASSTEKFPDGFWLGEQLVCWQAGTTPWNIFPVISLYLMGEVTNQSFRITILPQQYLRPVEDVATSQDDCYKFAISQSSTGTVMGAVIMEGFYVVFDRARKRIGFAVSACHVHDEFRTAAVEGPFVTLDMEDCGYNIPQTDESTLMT", "test": "bio-layer interferometry (ForteBio), biotinylated protease on streptavidin biosensor, Fab in solution [panel B2B5]"}, "[4]": {"molecular_target": "human β-secretase 1 (BACE1), extracellular/catalytic domain (human) (UniProt P56817)", "test": "enzyme inhibition assay with FRET peptide substrate (M-2420), Fab titrated on BACE1 [panel B2B5]"}, "[5]": {"molecular_target": "human β-secretase 1 (BACE1), extracellular/catalytic domain (human) (UniProt P56817)", "test": "FRET peptide inhibition assay; KI=IC50/(S/Km+1)"}, "[6]": {"molecular_target": "human β-secretase 1 (BACE1), extracellular/catalytic domain (human) (UniProt P56817)", "test": "biolayer interferometry; biotinylated protease on streptavidin sensor, Fab in solution"}, "[7]": {"molecular_target": "catalytic domain of MMP-9 (cdMMP-9) (UniProt P14780)", "test": "FRET peptide inhibition assay"}, "[8]": {"molecular_target": "catalytic domain of MMP-9 (cdMMP-9) (UniProt P14780)", "test": "FRET peptide inhibition assay; reference cdMMP-12 mutant D4"}, "[9]": {"molecular_target": "human β-secretase 1 (BACE1), extracellular/catalytic domain (human) (UniProt P56817)", "test": "enzyme inhibition assay with FRET peptide substrate (M-2420), Fab titrated on BACE1 [panel B1B3]"}, "[10]": {"molecular_target": "human β-secretase 1 (BACE1), extracellular/catalytic domain (human) (UniProt P56817)", "test": "bio-layer interferometry (ForteBio), biotinylated protease on streptavidin biosensor, Fab in solution [panel B1B3]"}, "[11]": {"molecular_target": "human β-secretase 1 (BACE1), extracellular/catalytic domain (human) (UniProt P56817)", "test": "enzyme inhibition assay with FRET peptide substrate (M-2420), Fab titrated on BACE1 [panel B1A4]"}, "[12]": {"molecular_target": "human β-secretase 1 (BACE1), extracellular/catalytic domain (human) (UniProt P56817)", "test": "bio-layer interferometry (ForteBio), biotinylated protease on streptavidin biosensor, Fab in solution [panel B1A4]"}, "[13]": {"molecular_target": "human β-secretase 1 (BACE1), extracellular/catalytic domain (human) (UniProt P56817)", "test": "enzyme inhibition assay with FRET peptide substrate, IgG titrated on BACE1 [panel A]"}, "[14]": {"molecular_target": "human β-secretase 1 (BACE1), extracellular/catalytic domain (human) (UniProt P56817)", "test": "biolayer interferometry; IgG on protein A sensor, protease in solution"}, "[15]": {"molecular_target": "human β-secretase 1 (BACE1), extracellular/catalytic domain (human) (UniProt P56817)", "test": "bio-layer interferometry (ForteBio), biotinylated protease on streptavidin biosensor, Fab in solution [panel B2B2]"}, "[16]": {"molecular_target": "human β-secretase 1 (BACE1), extracellular/catalytic domain (human) (UniProt P56817)", "test": "enzyme inhibition assay with FRET peptide substrate (M-2420), Fab titrated on BACE1 [panel B2B2]"}, "[17]": {"molecular_target": "human β-secretase 1 (BACE1), extracellular/catalytic domain (human) (UniProt P56817)", "test": "bio-layer interferometry (ForteBio), biotinylated protease on streptavidin biosensor, Fab in solution [panel B2B3]"}, "[18]": {"molecular_target": "human β-secretase 1 (BACE1), extracellular/catalytic domain (human) (UniProt P56817)", "test": "enzyme inhibition assay with FRET peptide substrate (M-2420), Fab titrated on BACE1 [panel B2B3]"}}, "data": [{"binder": "anti-MMP-12 Fab LG4 (Fab, V domains shown) VH: EVQLVESGGGLVQPGGSLRLSCAASGFNLYYSYMHWVRQAPGKGLEWVASISSYYGYTSYADSVKGRFTISADTSKNTAYLQMNSLRAEDTAVYYCARSPIVYYELFMFIDMGAQGWKYGMDYWGQGTLVTVSS VL: DIQMTQSPSSLSASVGDRVTITCRASQSVSSAVAWYQQKPGKAPKLLIYSASSLYSGVPSRFSGSRSGTDFTLTISSLQPEDFATYYCQQTFYPFTFGQGTKVEIKR", "values": [{"measurement": "Kd", "setting": "[1]", "result": 720, "unit": "nM"}, {"measurement": "fold (KD compared with cdMMP-12 wt)", "setting": "[2]", "result": 10, "unit": "fold"}]}, {"binder": "anti-BACE1 Fab B2B5 (Fab, V domains shown) VH: EVQLVESGGGLVQPGGSLRLSCAASGFNIYYSYMHWVRQAPGKGLEWVASIYPYYGSTYYADSVKGRFTISADTSKNTAYLQMNSLRAEDTAVYYCARWHGYPPGYSYYSSFSSSGFDYWGQGTLVTVSS VL: DIQMTQSPSSLSASVGDRVTITCRASQSVSSAVAWYQQKPGKAPKLLIYSASSLYSGVPSRFSGSRSGTDFTPTISSLQPEDFATYYCQQSYFSYPITFGQGTKVEIKR", "values": [{"measurement": "koff", "setting": "[3]", "result": 0.024, "unit": "s⁻¹"}, {"measurement": "kon", "setting": "[3]", "result": 180000, "unit": "M⁻¹ s⁻¹"}, {"measurement": "IC50", "setting": "[4]", "result": 97, "unit": "nM"}, {"measurement": "Ki", "setting": "[5]", "result": 77, "unit": "nM"}, {"measurement": "Kd", "setting": "[6]", "result": 130, "unit": "nM"}]}, {"binder": "anti-MMP-12 Fab LH11 (Fab, V domains shown) VH: EVQLVESGGGLVQPGGSLRLSCAASGFNLSYYSMHWVRQAPGKGLEWVAYIYPYYGSTYYADSVKGRFTISADTSKNTAYLQMNSLRAEDTAVYYCARFLLSIGKLFVGDGSILHVWL VL: DIQMTQSPSSLSASVGDRVTITCRASQSVSSAVAWYQQKPGKAPKLLIYSASSLYSGVPSRFSGSRSGTDFTLTISSLQPEDFATYYCQQAYYGYLFTFGQGTKVEIKR", "values": [{"measurement": "Ki", "setting": "[7]", "result": 6200, "unit": "nM"}, {"measurement": "fold (KI compared with cdMMP-12 mutant D4)", "setting": "[8]", "result": 83, "unit": "fold"}, {"measurement": "Kd", "setting": "[1]", "result": 740, "unit": "nM"}, {"measurement": "fold (KD compared with cdMMP-12 wt)", "setting": "[2]", "result": 9.9, "unit": "fold"}]}, {"binder": "anti-BACE1 Fab B1B3 (Fab, V domains shown) VH: EVQLVESGGGLVQPGGSLRLSCAASGFNISYYSMHWVRQAPGKGLEWVASISPYYGSTYYADSVKGRFTISADTSKNTAYLQMNSLRAEDTAVYYCARERSSCPVGWRDSRFGADGYGLEYWGQGTLVTVSS VL: DIQMTQSPSSLSASVGDRVTITCRASQSVSSAVAWYQQKPGKAPKLLIYSASSLYSGVPSRFSGSRSGTDFTLTISSLQPEDFATYYCQQSGHYHSLITFGQGTKVEIKR", "values": [{"measurement": "IC50", "setting": "[9]", "result": 270, "unit": "nM"}, {"measurement": "Ki", "setting": "[5]", "result": 210, "unit": "nM"}, {"measurement": "Kd", "setting": "[6]", "result": 31, "unit": "nM"}, {"measurement": "koff", "setting": "[10]", "result": 0.013, "unit": "s⁻¹"}, {"measurement": "kon", "setting": "[10]", "result": 410000, "unit": "M⁻¹ s⁻¹"}]}, {"binder": "anti-BACE1 Fab B1A4 (Fab, V domains shown) VH: EVQLVESGGGLVQPGGSLRLSCAASGFNISYSSIHWVRQAPGKGLEWVAYISPSSSYTSYADSVKGRFTISADTSKNTAYLQMNSLRAEDTAVYYCARHYYVSVGSGIDYWGQGTLVTVSS VL: DIQMTQSPSSLSASVGDRVTITCRASQSVSSAVAWYQQKPGKAPKLLIYSASSLYSGVPSRFSGSRSGTDFTPTISSLQPEDFATYYCQQASASPYALITFGQGTKVEIKR", "values": [{"measurement": "Ki", "setting": "[5]", "result": 41, "unit": "nM"}, {"measurement": "Kd", "setting": "[6]", "result": 21, "unit": "nM"}, {"measurement": "IC50", "setting": "[11]", "result": 52, "unit": "nM"}, {"measurement": "koff", "setting": "[12]", "result": 0.0086, "unit": "s⁻¹"}, {"measurement": "kon", "setting": "[12]", "result": 420000, "unit": "M⁻¹ s⁻¹"}]}, {"binder": "anti-BACE1 IgG B1A4 (antibody, V domains shown) VH: EVQLVESGGGLVQPGGSLRLSCAASGFNISYSSIHWVRQAPGKGLEWVAYISPSSSYTSYADSVKGRFTISADTSKNTAYLQMNSLRAEDTAVYYCARHYYVSVGSGIDYWGQGTLVTVSS VL: DIQMTQSPSSLSASVGDRVTITCRASQSVSSAVAWYQQKPGKAPKLLIYSASSLYSGVPSRFSGSRSGTDFTPTISSLQPEDFATYYCQQASASPYALITFGQGTKVEIKR", "values": [{"measurement": "IC50", "setting": "[13]", "result": 45, "unit": "nM"}, {"measurement": "Kd", "setting": "[14]", "result": 16, "unit": "nM"}, {"measurement": "Ki", "setting": "[5]", "result": 35, "unit": "nM"}]}, {"binder": "anti-MMP-12 Fab LH6 (Fab, V domains shown) VH: EVQLVESGGGLVQPGGSLRLSCAASGFNLSYSYMHWVRQAPGKGLEWVASIYPSYGSTYYADSVKGRFTISADTSKNTAYLQMNSLRAEDTAVYYCARDLEESLPKRARTAVSKELESVPYVMDYWGQGTLVTVSS VL: DIQMTQSPSSLSASVGDRVTITCRASQSVSSAVAWYQQKPGKAPKLLIYSASSLYSGVPSRFSGSRSGTDFTLTISSLQPEDFATYYCQQSSHYASPPITFGQGTKVEIKR", "values": [{"measurement": "Ki", "setting": "[7]", "result": 1500, "unit": "nM"}, {"measurement": "fold (KI compared with cdMMP-12 mutant D4)", "setting": "[8]", "result": 16, "unit": "fold"}, {"measurement": "Kd", "setting": "[1]", "result": 950, "unit": "nM"}, {"measurement": "fold (KD compared with cdMMP-12 wt)", "setting": "[2]", "result": 2.2, "unit": "fold"}]}, {"binder": "anti-BACE1 Fab B2B2 (Fab, V domains shown) VH: EVQLVESGGGLVQPGGSLRLSCAASGFNISSYYMHWVRQAPGKGLEWVASIYSSYGYTYYADSVKGRFTISADTSKNTAYLQMNSLRAEDTAVYYCARYWGYYAWFGSHPWAYGAFDYWGQGTLVTVSS VL: DIQMTQSPSSLSASVGDRVTITCRASQSVSSAVAWYQQKPGKAPKLLIYSASSLYSGVPSRFSGSRSGTDFTLTISSLQPEDFATYYCQQYGYYLITFGQGTKVEIKR", "values": [{"measurement": "Ki", "setting": "[5]", "result": 87, "unit": "nM"}, {"measurement": "Kd", "setting": "[6]", "result": 52, "unit": "nM"}, {"measurement": "koff", "setting": "[15]", "result": 0.0091, "unit": "s⁻¹"}, {"measurement": "kon", "setting": "[15]", "result": 180000, "unit": "M⁻¹ s⁻¹"}, {"measurement": "IC50", "setting": "[16]", "result": 110, "unit": "nM"}]}, {"binder": "anti-BACE1 Fab B2B3 (Fab, V domains shown) VH: EVQLVESGGGLVQPGGSLRLSCAASGFNISYSSIHWVRQAPGKGLEWVAYISSYSSSTYYADSVKGRFTISADTSKNTAYLQMNSLRAEDTAVYYCARSASGIDYWGQGTLVTVSS VL: DIQMTQSPSSLSASVGDRVTITCRASQSVSSAVAWYQQKPGKAPKLLIYSASSLYSGVPSRFSGSRSGTDFTLTISSLQPEDFATYYCQQSGYAPFTFGQGTKVEIKR", "values": [{"measurement": "koff", "setting": "[17]", "result": 0.0097, "unit": "s⁻¹"}, {"measurement": "kon", "setting": "[17]", "result": 93000, "unit": "M⁻¹ s⁻¹"}, {"measurement": "Ki", "setting": "[5]", "result": 100, "unit": "nM"}, {"measurement": "Kd", "setting": "[6]", "result": 100, "unit": "nM"}, {"measurement": "IC50", "setting": "[18]", "result": 130, "unit": "nM"}]}]}
